# Results: the supplement of paper PMC9112550, “Optimization of the antimicrobial peptide Bac7 by deep mutational scanning” (BMC Biology, 2022)
# Tested on: Escherichia coli TOP10
# Assay: shrunken log2 fold change of peptide-encoding DNA abundance (4.5 h post-induction vs induction); higher = less antimicrobial activity (less host growth inhibition)
# Conditions: time post-induction: 4.5 h; library: site-saturation at positions 5, 18, 19, 20
# 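Also: peptides expressed intracellularly from a pBAD plasmid library in pooled LB shake-flask culture, induced with 0.3% L-arabinose, DNA abundance read by NGS, three biological replicates, DESeq2 with apeglm shrinkage.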
row,Sequence,shrunken log2 fold change
1,RRIRQRPPRLPRPRPRPEKIPRP,2.55
2,RRIRRRPPRLPRPRPRPPALPRP,0.635
3,RRIRMRPPRLPRPRPRPEFSPRP,1.51
4,RRIRIRPPRLPRPRPRPSKRPRP,-0.622
5,RRIRARPPRLPRPRPRPIDNPRP,-0.0987
6,RRIRNRPPRLPRPRPRPDNSPRP,-0.188
7,RRIRLRPPRLPRPRPRPCIVPRP,-0.641
8,RRIRFRPPRLPRPRPRPDFFPRP,-0.027
9,RRIRIRPPRLPRPRPRPHDLPRP,-0.057
10,RRIRERPPRLPRPRPRPCDHPRP,-0.0479
11,RRIRIRPPRLPRPRPRPYANPRP,-0.0728
12,RRIRSRPPRLPRPRPRPDPEPRP,0.183
13,RRIRNRPPRLPRPRPRPTDVPRP,-0.0793
14,RRIRFRPPRLPRPRPRPPSVPRP,0.08
15,RRIRQRPPRLPRPRPRPSACPRP,0.42
16,RRIRVRPPRLPRPRPRPFQTPRP,-0.214
17,RRIRKRPPRLPRPRPRPFKMPRP,-0.231
18,RRIRDRPPRLPRPRPRPELHPRP,0.319
19,RRIRGRPPRLPRPRPRPLKDPRP,0.125
20,RRIRRRPPRLPRPRPRPAFEPRP,0.54
21,RRIRWRPPRLPRPRPRPGYIPRP,0.226
22,RRIRDRPPRLPRPRPRPKECPRP,0.184
23,RRIRHRPPRLPRPRPRPKFNPRP,-0.437
24,RRIRYRPPRLPRPRPRPISYPRP,-0.325
25,RRIRERPPRLPRPRPRPETDPRP,-0.0989

row,Sequence,shrunken log2 fold change
1,RRIRLRPPRLPRPRPRPFQDPRP,0.000192
2,RRIRIRPPRLPRPRPRPTNVPRP,-0.174
3,RRIRERPPRLPRPRPRPIGMPRP,0.115
4,RRIRSRPPRLPRPRPRPPALPRP,0.453
5,RRIRDRPPRLPRPRPRPKARPRP,0.132
6,RRIRYRPPRLPRPRPRPKKNPRP,-0.231
7,RRIRCRPPRLPRPRPRPRSEPRP,0.325
8,RRIRSRPPRLPRPRPRPGHNPRP,-0.433
9,RRIRFRPPRLPRPRPRPTQYPRP,-0.261
10,RRIRYRPPRLPRPRPRPSKKPRP,-0.0925
11,RRIRARPPRLPRPRPRPYSGPRP,-0.0581
12,RRIRDRPPRLPRPRPRPQYYPRP,0.003
13,RRIRPRPPRLPRPRPRPIKKPRP,-0.00206
14,RRIRRRPPRLPRPRPRPPTCPRP,0.474
15,RRIRQRPPRLPRPRPRPKLQPRP,1.59
16,RRIRKRPPRLPRPRPRPWWMPRP,0.105
17,RRIRPRPPRLPRPRPRPEPTPRP,0.416
18,RRIRWRPPRLPRPRPRPYQQPRP,-0.0018
19,RRIRKRPPRLPRPRPRPHVQPRP,-0.0829
20,RRIRLRPPRLPRPRPRPYWEPRP,-0.0613
21,RRIRKRPPRLPRPRPRPQWRPRP,0.309
22,RRIRDRPPRLPRPRPRPIQRPRP,-0.01
23,RRIRNRPPRLPRPRPRPPADPRP,0.595
24,RRIRERPPRLPRPRPRPLHTPRP,-0.674
25,RRIRGRPPRLPRPRPRPWHEPRP,-0.357

row,Sequence,shrunken log2 fold change
1,RRIRWRPPRLPRPRPRPDPRPRP,0.751
2,RRIRLRPPRLPRPRPRPKFVPRP,-0.055
3,RRIRQRPPRLPRPRPRPWMLPRP,-0.267
4,RRIRTRPPRLPRPRPRPDMFPRP,-0.0274
5,RRIRQRPPRLPRPRPRPTLYPRP,-0.0318
6,RRIRMRPPRLPRPRPRPILIPRP,0.0587
7,RRIRTRPPRLPRPRPRPIDIPRP,0.0364
8,RRIRSRPPRLPRPRPRPRLVPRP,0.356
9,RRIRTRPPRLPRPRPRPDEEPRP,0.0173
10,RRIRSRPPRLPRPRPRPQNMPRP,-0.268
11,RRIRQRPPRLPRPRPRPWAEPRP,-0.0482
12,RRIRYRPPRLPRPRPRPVDWPRP,0.145
13,RRIRKRPPRLPRPRPRPEPPPRP,2.92
14,RRIRRRPPRLPRPRPRPMPIPRP,0.25
15,RRIRNRPPRLPRPRPRPDPEPRP,0.211
16,RRIRHRPPRLPRPRPRPDTGPRP,-0.014
17,RRIRCRPPRLPRPRPRPKYVPRP,-0.394
18,RRIRPRPPRLPRPRPRPNCGPRP,-0.0429
19,RRIRGRPPRLPRPRPRPKYLPRP,0.32
20,RRIRRRPPRLPRPRPRPRTMPRP,0.221
21,RRIRARPPRLPRPRPRPNCRPRP,0.0806
22,RRIRPRPPRLPRPRPRPESRPRP,0.11
23,RRIRFRPPRLPRPRPRPNMQPRP,-0.846
24,RRIRTRPPRLPRPRPRPIGRPRP,-0.159
25,RRIRERPPRLPRPRPRPTCGPRP,0.497

row,Sequence,shrunken log2 fold change
1,RRIRVRPPRLPRPRPRPSQQPRP,-0.116
2,RRIRARPPRLPRPRPRPMCYPRP,-0.112
3,RRIRPRPPRLPRPRPRPTHIPRP,0.0811
4,RRIRKRPPRLPRPRPRPTQQPRP,1.35
5,RRIRTRPPRLPRPRPRPLPGPRP,0.164
6,RRIRGRPPRLPRPRPRPDNEPRP,1.84
7,RRIRHRPPRLPRPRPRPWNFPRP,-0.0202
8,RRIRGRPPRLPRPRPRPWWVPRP,0.0839
9,RRIRHRPPRLPRPRPRPLCYPRP,-0.737
10,RRIRCRPPRLPRPRPRPEEDPRP,-0.00229
11,RRIRKRPPRLPRPRPRPERWPRP,1.15
12,RRIRKRPPRLPRPRPRPSQLPRP,0.141
13,RRIRIRPPRLPRPRPRPECSPRP,-0.428
14,RRIRFRPPRLPRPRPRPKYEPRP,-0.063
15,RRIRCRPPRLPRPRPRPSKPPRP,-0.109
16,RRIRMRPPRLPRPRPRPSGYPRP,-0.0299
17,RRIRWRPPRLPRPRPRPEYMPRP,-0.0342
18,RRIRYRPPRLPRPRPRPRRTPRP,-0.202
19,RRIRERPPRLPRPRPRPMLHPRP,-0.542
20,RRIRSRPPRLPRPRPRPAHCPRP,0.0412
21,RRIRDRPPRLPRPRPRPFMQPRP,0.0183
22,RRIRRRPPRLPRPRPRPKINPRP,-0.123
23,RRIRTRPPRLPRPRPRPGCCPRP,0.334
24,RRIRPRPPRLPRPRPRPLFCPRP,-0.0561
25,RRIRQRPPRLPRPRPRPLPCPRP,-0.00831

row,Sequence,shrunken log2 fold change
1,RRIRHRPPRLPRPRPRPNEQPRP,-0.0176
2,RRIRTRPPRLPRPRPRPMDFPRP,0.0159
3,RRIRSRPPRLPRPRPRPWCEPRP,-0.291
4,RRIRARPPRLPRPRPRPGSQPRP,0.368
5,RRIRKRPPRLPRPRPRPACQPRP,0.0289
6,RRIRDRPPRLPRPRPRPHCAPRP,0.143
7,RRIRPRPPRLPRPRPRPLFNPRP,-0.444
8,RRIRERPPRLPRPRPRPMGHPRP,-0.298
9,RRIRHRPPRLPRPRPRPFGLPRP,-0.0904
10,RRIRFRPPRLPRPRPRPFQLPRP,-0.0751
11,RRIRMRPPRLPRPRPRPTQLPRP,0.668
12,RRIRDRPPRLPRPRPRPMQIPRP,0.0565
13,RRIRSRPPRLPRPRPRPPKGPRP,0.144
14,RRIRRRPPRLPRPRPRPLHFPRP,0.397
15,RRIRPRPPRLPRPRPRPVMTPRP,-0.0299
16,RRIRGRPPRLPRPRPRPSNIPRP,1.1
17,RRIRYRPPRLPRPRPRPRVNPRP,0.00364
18,RRIRGRPPRLPRPRPRPNNGPRP,-0.363
19,RRIRVRPPRLPRPRPRPSTLPRP,-0.166
20,RRIRVRPPRLPRPRPRPKEMPRP,-0.131
21,RRIRFRPPRLPRPRPRPSEDPRP,0.00214
22,RRIRVRPPRLPRPRPRPGSLPRP,-0.363
23,RRIRKRPPRLPRPRPRPGEWPRP,-0.0202
24,RRIRPRPPRLPRPRPRPADCPRP,0.273
25,RRIRCRPPRLPRPRPRPSLFPRP,-0.293

row,Sequence,shrunken log2 fold change
1,RRIRQRPPRLPRPRPRPAEWPRP,-0.357
2,RRIRRRPPRLPRPRPRPRDWPRP,1.01
3,RRIRARPPRLPRPRPRPKSFPRP,0.0951
4,RRIRDRPPRLPRPRPRPCGQPRP,-0.0223
5,RRIRARPPRLPRPRPRPYGQPRP,-0.163
6,RRIRPRPPRLPRPRPRPKWSPRP,-0.113
7,RRIRNRPPRLPRPRPRPRDDPRP,0.145
8,RRIRGRPPRLPRPRPRPKYGPRP,-0.111
9,RRIRTRPPRLPRPRPRPKHTPRP,-0.0343
10,RRIRGRPPRLPRPRPRPMAQPRP,1.07
11,RRIRERPPRLPRPRPRPACCPRP,0.0931
12,RRIRERPPRLPRPRPRPPNSPRP,-0.148
13,RRIRQRPPRLPRPRPRPEVLPRP,0.0411
14,RRIRNRPPRLPRPRPRPMVYPRP,0.0157
15,RRIRDRPPRLPRPRPRPAPGPRP,0.699
16,RRIRKRPPRLPRPRPRPTFIPRP,-0.0546
17,RRIRNRPPRLPRPRPRPYQYPRP,0.0162
18,RRIRGRPPRLPRPRPRPWTYPRP,0.0864
19,RRIRDRPPRLPRPRPRPYKTPRP,-0.0411
20,RRIRDRPPRLPRPRPRPNCNPRP,1.33
21,RRIRKRPPRLPRPRPRPNPPPRP,0.0342
22,RRIRSRPPRLPRPRPRPDFDPRP,0.0818
23,RRIRRRPPRLPRPRPRPYEDPRP,-0.08
24,RRIRSRPPRLPRPRPRPNHHPRP,-0.566
25,RRIRNRPPRLPRPRPRPPHMPRP,-0.217
